# Laboratory results from patent publication US20230212319A1, “NOVEL ANTIGEN BINDING DOMAINS AND SYNTHETIC ANTIGEN RECEPTORS INCORPORATING THE SAME” (University of Southern California, priority 2020, published 2023).
# B1: 22218 (protein)
# chain: MALPVTALLLPLALLLHAARPACQDKLTQWPKWLEGTGGGGSGGGGSGGGGSEFDIQMTQSPSSLSASVGDRVTITCKASDHINNWLAWYQQKPGQAPKLLIYGATTLETGVPSRFSGSGSGTDYTLTISSLQPEDFATYYCQQSWNTPWTFGQGTKLEIKRLEDLKNVFPPEVAVFEPSKAEIAHTQKATLVCLATGFYPDHVELSWWVNGKEVHSGVCTDPQPLKEQPALNDSRYCLSSRLRVSATFWQNPRNHFRCQVQFYGLSENDEWTQDRAKPVTQIVSAEAWGRADCGITSASYHQGVLSATILYEILLGKATLYAVLVSALVLMAMVKRKDSRGRAKRSGSGATNFSLLKQAGDVEENPGPTSATMDWIWRILFLVGAATGAHSGPQVQLQESGGGLAQAGGSLRLSCAASGRTFSMGWFRQAPGKEREFVAAITYSGGSPYYASSVRGRFTISRDNAKNTVYLQMNSLKPEDTAVYYCAANPTYGSDWNAENWGQGTQVTVSSGSGGGGSGGGGSGGGGSFEQVQLQQPGAELVKPGASVKMSCKASGYAFSSYWINWMKQKPGQGLEWIGQIYPGDGDTNYNGKFKGRATLTADTSSSTAYMQLSSLTSEDSAVYFCARSITTVVGCAMDYWGQGTSVTVSSTRIQNPDPAVYQLRDSKSSDKSVCLFTDFDSQTNVSQSKDSDVYITDKCVLDMRSMDFKSNSAVAWSNKSDFACANAFNNSIIPEDTFFPSSDVPCDVKLVEKSFETDTNLNFQNLSVIGFRILLLKVAGFNLLMTLRLWSSRAKRSGSGVKQTLNFDLLKLAGDVESNPGPSRGHMTEYKPTVRLATRDDVPRAVRTLAAAFADYPATRHTVDPDRHIERVTELQELFLTRVGLDIGKVWVADDGAAVAVWTTPESVEAGAVFAEIGPRMAELSGSRLAAQQQMEGLLAPHRPKEPAWFLATVGVSPDHQGKGLGSAVVLPGVEAAERAGVPAFLETSAPRNLPFYERLGFTVTADVEVPEGPRTWCMTRKPGA
# B2: 22219 (protein)
# chain: MALPVTALLLPLALLLHAARPDIQMTQSPSSLSASVGDRVTITCKASDHINNWLAWYQQKPGQAPKLLIYGATTLETGVPSRFSGSGSGTDYTLTISSLQPEDFATYYCQQSWNTPWTFGQGTKLEIKRLEDLKNVFPPEVAVFEPSEAEISHTQKATLVCLATGFYPDHVELSWWVNGKEVHSGVCTDPQPLKEQPALNDSRYCLSSRLRVSATFWQNPRNHFRCQVQFYGLSENDEWTQDRAKPVTQIVSAEAWGRADCGFTSESYQQGVLSATILYEILLGKATLYAVLVSALVLMAMVKRKDSRGRAKRSGSGATNFSLLKQAGDVEENPGPTSATMDWIWRILFLVGAATGAHSGPSACPYSNPSLCSGSGGGGSGGGGSGGGGSFEQVQLQQPGAELVKPGASVKMSCKASGYAFSSYWINWMKQKPGQGLEWIGQIYPGDGDTNYNGKFKGRATLTADTSSSTAYMQLSSLTSEDSAVYFCARSITTVVGCAMDYWGQGTSVTVSSTRIQNPDPAVYQLRDSKSSDKSVCLFTDFDSQTNVSQSKDSDVYITDKCVLDMRSMDFKSNSAVAWSNKSDFACANAFNNSIIPEDTFFPSPESSCDVKLVEKSFETDTNLNFQNLSVIGFRILLLKVAGFNLLMTLRLWSSRAKRSGSGVKQTLNFDLLKLAGDVESNPGPSRGHMTEYKPTVRLATRDDVPRAVRTLAAAFADYPATRHTVDPDRHIERVTELQELFLTRVGLDIGKVWVADDGAAVAVWTTPESVEAGAVFAEIGPRMAELSGSRLAAQQQMEGLLAPHRPKEPAWFLATVGVSPDHQGKGLGSAVVLPGVEAAERAGVPAFLETSAPRNLPFYERLGFTVTADVEVPEGPRTWCMTRKPGA
# B3: 22222 (protein)
# chain: MALPVTALLLPLALLLHAARPACPQLGPYELWELSHGTGAVVRGAEFDIQMTQSPSSLSASVGDRVTITCKASDHINNWLAWYQQKPGQAPKLLIYGATTLETGVPSRFSGSGSGTDYTLTISSLQPEDFATYYCQQSWNTPWTFGQGTKLEIKRLEDLKNVFPPEVAVFEPSKAEIAHTQKATLVCLATGFYPDHVELSWWVNGKEVHSGVCTDPQPLKEQPALNDSRYCLSSRLRVSATFWQNPRNHFRCQVQFYGLSENDEWTQDRAKPVTQIVSAEAWGRADCGITSASYHQGVLSATILYEILLGKATLYAVLVSALVLMAMVKRKDSRGRAKRSGSGATNFSLLKQAGDVEENPGPTSATMDWIWRILFLVGAATGAHSGPQVQLQESGGGLAQAGGSLRLSCAASGRTFSMGWFRQAPGKEREFVAAITYSGGSPYYASSVRGRFTISRDNAKNTVYLQMNSLKPEDTAVYYCAANPTYGSDWNAENWGQGTQVTVSSGSGGGGSGGGGSGGGGSFEQVQLQQPGAELVKPGASVKMSCKASGYAFSSYWINWMKQKPGQGLEWIGQIYPGDGDTNYNGKFKGRATLTADTSSSTAYMQLSSLTSEDSAVYFCARSITTVVGCAMDYWGQGTSVTVSSTRIQNPDPAVYQLRDSKSSDKSVCLFTDFDSQTNVSQSKDSDVYITDKCVLDMRSMDFKSNSAVAWSNKSDFACANAFNNSIIPEDTFFPSSDVPCDVKLVEKSFETDTNLNFQNLSVIGFRILLLKVAGFNLLMTLRLWSSRAKRSGSGVKQTLNFDLLKLAGDVESNPGPSRGHMTEYKPTVRLATRDDVPRAVRTLAAAFADYPATRHTVDPDRHIERVTELQELFLTRVGLDIGKVWVADDGAAVAVWTTPESVEAGAVFAEIGPRMAELSGSRLAAQQQMEGLLAPHRPKEPAWFLATVGVSPDHQGKGLGSAVVLPGVEAAERAGVPAFLETSAPRNLPFYERLGFTVTADVEVPEGPRTWCMTRKPGA
# B4: 22194 (protein)
# chain: MALPVTALLLPLALLLHAARPQLQLQESGPGLVKPSETLSLTCTVSGDSISSGDYYWGWIRQPPGKGLEWIGHIYYSGVTYYNPSLKSRVTISVDTSRNQFSLKLSSVTAADTAVYYCTREDSSNWRSRGQGTLVTVSSLEGQPKANPTVTLFPPSSEELQANKATLVCLISDFYPGAVTVAWKADGSPVKAGVETTKPSKQSNNKYAASSYLSLTPEQWKSHRSYSCQVTHEGSTVEKTVAPTECSPIKTDVITMDPKDNCSKDANDTLLLQLTNTSAYYMYLLLLLKSVVYFAIITCCLLRRTAFCCNGEKSRAKRSGSGATNFSLLKQAGDVEENPGPTSMDWIWRILFLVGAATGAHSFEYAKEMRNAYWEIALLPNLTNQQKRAPIRKLYDDPSQSSELLSEAKKLNDSQTRASTKGPSVFPLAPSSKSTSGGTAALGCLVKDYFPEPVTVSWNSGALTSGVHTFPAVLQSSGLYSLSSVVTVPSSSLGTQTYICNVNHKPSNTKVDKRVEPKSCEVKTDSTDHVKPKETENTKQPSKSCHKPKAIVHTEKVNMMSLTVLGLRMLFAKTVAVNFLLTAKLFFLRAKRSGSGVKQTLNFDLLKLAGDVESNPGPSRGHMTEYKPTVRLATRDDVPRAVRTLAAAFADYPATRHTVDPDRHIERVTELQELFLTRVGLDIGKVWVADDGAAVAVWTTPESVEAGAVFAEIGPRMAELSGSRLAAQQQMEGLLAPHRPKEPAWFLATVGVSPDHQGKGLGSAVVLPGVEAAERAGVPAFLETSAPRNLPFYERLGFTVTADVEVPEGPRTWCMTRKPGA
# B5: 22223 (protein)
# chain: MALPVTALLLPLALLLHAARPDIQMTQSPSSLSASVGDRVTITCKASDHINNWLAWYQQKPGQAPKLLIYGATTLETGVPSRFSGSGSGTDYTLTISSLQPEDFATYYCQQSWNTPWTFGQGTKLEIKRLEDLKNVFPPEVAVFEPSEAEISHTQKATLVCLATGFYPDHVELSWWVNGKEVHSGVCTDPQPLKEQPALNDSRYCLSSRLRVSATFWQNPRNHFRCQVQFYGLSENDEWTQDRAKPVTQIVSAEAWGRADCGFTSESYQQGVLSATILYEILLGKATLYAVLVSALVLMAMVKRKDSRGRAKRSGSGATNFSLLKQAGDVEENPGPTSATMDWIWRILFLVGAATGAHSGPQLGPYELWELSHGSGPLGIAGIFEQVQLQQPGAELVKPGASVKMSCKASGYAFSSYWINWMKQKPGQGLEWIGQIYPGDGDTNYNGKFKGRATLTADTSSSTAYMQLSSLTSEDSAVYFCARSITTVVGCAMDYWGQGTSVTVSSTRIQNPDPAVYQLRDSKSSDKSVCLFTDFDSQTNVSQSKDSDVYITDKCVLDMRSMDFKSNSAVAWSNKSDFACANAFNNSIIPEDTFFPSPESSCDVKLVEKSFETDTNLNFQNLSVIGFRILLLKVAGFNLLMTLRLWSSRAKRSGSGVKQTLNFDLLKLAGDVESNPGPSRGHMTEYKPTVRLATRDDVPRAVRTLAAAFADYPATRHTVDPDRHIERVTELQELFLTRVGLDIGKVWVADDGAAVAVWTTPESVEAGAVFAEIGPRMAELSGSRLAAQQQMEGLLAPHRPKEPAWFLATVGVSPDHQGKGLGSAVVLPGVEAAERAGVPAFLETSAPRNLPFYERLGFTVTADVEVPEGPRTWCMTRKPGA
# B6: 22183 (protein)
# chain: MALPVTALLLPLALLLHAARPACQVQLQESGAGLLKPSETLSLTCAVYGGSFSAYNWNWIRQPPGKGLEWIGEINHRGDTAYNPSLKSRVTISVDTSKNQFSLNLTSVTAADTAVYYCAARGYSYGWPPGYISDAFDIWGQGTQVTVSSGTGGGGSGGGGSGGGGSEFDIQMTQSPSSLSASVGDRVTITCKASDHINNWLAWYQQKPGQAPKLLIYGATTLETGVPSRFSGSGSGTDYTLTISSLQPEDFATYYCQQSWNTPWTFGQGTKLEIKRLEDLKNVFPPEVAVFEPSEAEISHTQKATLVCLATGFYPDHVELSWWVNGKEVHSGVCTDPQPLKEQPALNDSRYCLSSRLRVSATFWQNPRNHFRCQVQFYGLSENDEWTQDRAKPVTQIVSAEAWGRADCGFTSESYQQGVLSATILYEILLGKATLYAVLVSALVLMAMVKRKDSRGRAKRSGSGATNFSLLKQAGDVEENPGPTSMDWIWRILFLVGAATGAHSFEQVQLQQPGAELVKPGASVKMSCKASGYAFSSYWINWMKQKPGQGLEWIGQIYPGDGDTNYNGKFKGRATLTADTSSSTAYMQLSSLTSEDSAVYFCARSITTVVGCAMDYWGQGTSVTVSSTRIQNPDPAVYQLRDSKSSDKSVCLFTDFDSQTNVSQSKDSDVYITDKCVLDMRSMDFKSNSAVAWSNKSDFACANAFNNSIIPEDTFFPSPESSCDVKLVEKSFETDTNLNFQNLSVIGFRILLLKVAGFNLLMTLRLWSSRAKRSGSGVKQTLNFDLLKLAGDVESNPGPSRGHMTEYKPTVRLATRDDVPRAVRTLAAAFADYPATRHTVDPDRHIERVTELQELFLTRVGLDIGKVWVADDGAAVAVWTTPESVEAGAVFAEIGPRMAELSGSRLAAQQQMEGLLAPHRPKEPAWFLATVGVSPDHQGKGLGSAVVLPGVEAAERAGVPAFLETSAPRNLPFYERLGFTVTADVEVPEGPRTWCMTRKPGA
# Tested on: RAJI cells
# Assay: JNG assay, co-culture with RAJI cells
# Type: cell-based
# Conditions: JNG cells expressing construct, co-culture with Raji
# How it was run: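 Jurkat NFAT-GFP (JNG) cells stably transduced with SARs by lentivirus, with drug selection where the construct carried a resistance gene, then co-cultured with target cells at E:T ~1:2 for ~4–18 h. % GFP-positive cells measured by FACS against parental JNG; +/- to 5+ correspond to ~5–50% GFP-positive.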
row,Molecule,NFAT-GFP ASSAY: Raji
1,B1,"Raji (3+) (refer to approximately 5%, 10%, 20%, 30%, 40% and 50% GFP positive cells)"
2,B2,"Raji (+/-) (refer to approximately 5%, 10%, 20%, 30%, 40% and 50% GFP positive cells)"
3,B3,"Raji (2+) (refer to approximately 5%, 10%, 20%, 30%, 40% and 50% GFP positive cells)"
4,B4,"4+ (refer to approximately 5%, 10%, 20%, 30%, 40% and 50% GFP positive cells)"
5,B5,"Raji (3+) (refer to approximately 5%, 10%, 20%, 30%, 40% and 50% GFP positive cells)"
6,B6,"5+ (refer to approximately 5%, 10%, 20%, 30%, 40% and 50% GFP positive cells)"
